Source: patent publication US20110262944A1 (UNIVERSITY OF TSUKUBA, published 2011)

Key:
Test in all cases: Ni-NTA co-precipitation after co-expression in E. coli
[1] = target: T1, PB2-N (residues 1-86) carrying a hexa-histidine tag at the N-terminal end (influenza A/Puerto Rico/8/34 H1N1, UniProt A4GCJ6 1-86)
T1 sequence: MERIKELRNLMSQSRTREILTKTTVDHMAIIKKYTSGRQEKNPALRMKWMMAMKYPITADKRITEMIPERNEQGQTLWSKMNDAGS

[2] = target: T2, PB2 residues 37-174 with N-terminal hexa-histidine tag and TEV cleavage site (influenza A/Puerto Rico/8/34 H1N1, UniProt A4GCJ6 37-174)
T2 sequence: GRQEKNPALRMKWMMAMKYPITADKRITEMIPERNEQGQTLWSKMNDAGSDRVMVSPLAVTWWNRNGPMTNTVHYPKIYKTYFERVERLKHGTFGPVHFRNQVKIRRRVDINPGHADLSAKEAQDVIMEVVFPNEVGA

[3] = target: PB2 residues 252-490 with N-terminal hexa-histidine tag and TEV cleavage site (influenza A/Puerto Rico/8/34 H1N1, UniProt B4URE6 252-490)

B1: PB1-C (C-terminal residues 678-757 of the RNA polymerase PB1 subunit, influenza A/Puerto Rico/8/34 H1N1) (other)
chain: SQRGVLEDEQMYQRCCNLFEKFFPSSSYRRPVGISSMVEAMVSRARIDARIDFESGRIKKEEFTEIMKICSTIEELRRQK
binding result [1]: binds | binding result [2]: no binding | binding result [3]: no binding
